Experimental data: patent publication US20220010021A1 (Sanofi, published 2022)
Changes are numbered by the printed parent chain.

T1: human beta-Klotho (KLB) (human, UniProt Q86Z14 53-997)
T1 construct: also called human KLB
T1 sequence (looked up): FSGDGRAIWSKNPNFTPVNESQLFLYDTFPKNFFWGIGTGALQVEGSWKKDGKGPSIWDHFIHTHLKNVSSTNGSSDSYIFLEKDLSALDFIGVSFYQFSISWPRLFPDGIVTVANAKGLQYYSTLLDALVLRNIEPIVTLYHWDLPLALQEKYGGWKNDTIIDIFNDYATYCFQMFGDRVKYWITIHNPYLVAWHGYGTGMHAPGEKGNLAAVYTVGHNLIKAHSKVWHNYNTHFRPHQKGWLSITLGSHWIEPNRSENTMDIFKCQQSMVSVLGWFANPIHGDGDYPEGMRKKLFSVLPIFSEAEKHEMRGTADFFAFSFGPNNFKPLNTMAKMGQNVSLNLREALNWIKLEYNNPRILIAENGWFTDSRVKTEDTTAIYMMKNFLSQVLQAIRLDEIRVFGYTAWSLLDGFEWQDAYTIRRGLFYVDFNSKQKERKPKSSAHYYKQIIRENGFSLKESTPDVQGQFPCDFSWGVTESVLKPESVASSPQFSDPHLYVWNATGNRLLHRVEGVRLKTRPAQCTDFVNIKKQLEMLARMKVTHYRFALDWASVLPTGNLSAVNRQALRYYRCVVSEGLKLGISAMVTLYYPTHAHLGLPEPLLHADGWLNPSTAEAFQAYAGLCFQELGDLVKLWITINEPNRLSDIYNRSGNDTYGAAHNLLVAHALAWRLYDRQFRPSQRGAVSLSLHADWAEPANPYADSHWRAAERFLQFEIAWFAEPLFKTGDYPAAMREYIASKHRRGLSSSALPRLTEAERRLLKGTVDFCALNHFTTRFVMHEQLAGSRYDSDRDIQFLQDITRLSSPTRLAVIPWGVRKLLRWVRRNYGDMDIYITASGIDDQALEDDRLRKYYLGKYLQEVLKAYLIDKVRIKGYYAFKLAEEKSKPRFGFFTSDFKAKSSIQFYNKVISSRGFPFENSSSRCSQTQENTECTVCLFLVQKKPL

B1: 16H7 variant, light chain G23N (antibody, human IgG4 S228P, lambda, V domains shown)
VH: not shown
VL: SYVLTQPPSVSVAPGQTARITCNGNNIGSESVHWYQQKPGQAPVLVVYDDSDRPSGIPERFSGSNSGNTATLTISRVEAGDEADYYCQVWDGNSDHVVFGGGTKLTVLG
notes: IgG4 backbone
B2: 16H7 variant, light chain N25A (antibody, human IgG4 S228P, lambda, V domains shown)
VH: not shown
VL: B1 VL with N23G, N25A
notes: IgG4 backbone
B3: 16H7 variant, light chain G24V (antibody, human IgG4 S228P, lambda, V domains shown)
VH: not shown
VL: B1 VL with N23G, G24V
notes: IgG4 backbone
B4: 16H7 variant, light chain G23R (antibody, human IgG4 S228P, lambda, V domains shown)
VH: not shown
VL: B1 VL with N23R
notes: IgG4 backbone
B5: 16H7 variant, light chain G24H (antibody, human IgG4 S228P, lambda, V domains shown)
VH: not shown
VL: B1 VL with N23G, G24H
notes: IgG4 backbone
B6: 16H7 variant, light chain G24Y (antibody, human IgG4 S228P, lambda, V domains shown)
VH: not shown
VL: B1 VL with N23G, G24Y
notes: IgG4 backbone
B7: 16H7 variant, light chain I27E (antibody, human IgG4 S228P, lambda, V domains shown)
VH: not shown
VL: B1 VL with N23G, I27E
notes: IgG4 backbone
B8: 16H7 variant, light chain G23T (antibody, human IgG4 S228P, lambda, V domains shown)
VH: not shown
VL: B1 VL with N23T
notes: IgG4 backbone
B9: 16H7 variant, light chain I27D (antibody, human IgG4 S228P, lambda, V domains shown)
VH: not shown
VL: B1 VL with N23G, I27D
notes: IgG4 backbone
B10: 16H7 variant, light chain N25E (antibody, human IgG4 S228P, lambda, V domains shown)
VH: not shown
VL: B1 VL with N23G, N25E
notes: IgG4 backbone
B11: 16H7 variant, light chain G23P (antibody, human IgG4 S228P, lambda, V domains shown)
VH: not shown
VL: B1 VL with N23P
notes: IgG4 backbone
B12: 16H7 variant, light chain I27K (antibody, IgG4, V domains shown)
VH: not shown
VL: B1 VL with N23G, I27K
notes: IgG4 backbone; copies: 2 + 2
B13: 16H7 variant, light chain G24F (antibody, human IgG4 S228P, lambda, V domains shown)
VH: not shown
VL: B1 VL with N23G, G24F
notes: IgG4 backbone
B14: 16H7 variant, light chain G24N (antibody, human IgG4 S228P, lambda, V domains shown)
VH: not shown
VL: B1 VL with N23G, G24N
notes: IgG4 backbone
B15: 16H7 variant, light chain I27S (antibody, human IgG4 S228P, lambda, V domains shown)
VH: not shown
VL: B1 VL with N23G, I27S
notes: IgG4 backbone
B16: 16H7 variant, light chain G23V (antibody, human IgG4 S228P, lambda, V domains shown)
VH: not shown
VL: B1 VL with N23V
notes: IgG4 backbone
B17: 16H7 variant, light chain G24R (antibody, human IgG4 S228P, lambda, V domains shown)
VH: not shown
VL: B1 VL with N23G, G24R
notes: IgG4 backbone
B18: 16H7 variant, light chain G24A (antibody, human IgG4 S228P, lambda, V domains shown)
VH: not shown
VL: B1 VL with N23G, G24A
notes: IgG4 backbone
B19: 16H7 variant, light chain G24K (antibody, human IgG4 S228P, lambda, V domains shown)
VH: not shown
VL: B1 VL with N23G, G24K
notes: IgG4 backbone
B20: 16H7 variant, light chain G24M (antibody, human IgG4 S228P, lambda, V domains shown)
VH: not shown
VL: B1 VL with N23G, G24M
notes: IgG4 backbone
B21: 16H7 variant, light chain I27G (antibody, IgG4, V domains shown)
VH: not shown
VL: B1 VL with N23G, I27G
notes: IgG4 backbone; copies: 2 + 2
B22: 16H7 variant, light chain G24S (antibody, human IgG4 S228P, lambda, V domains shown)
VH: not shown
VL: B1 VL with N23G, G24S
notes: IgG4 backbone
B23: 16H7 variant, light chain G23S (antibody, human IgG4 S228P, lambda, V domains shown)
VH: not shown
VL: B1 VL with N23S
notes: IgG4 backbone
B24: 16H7 variant, light chain G24C (antibody, human IgG4 S228P, lambda, V domains shown)
VH: not shown
VL: B1 VL with N23G, G24C
notes: IgG4 backbone
B25: 16H7 variant, light chain I27L (antibody, IgG4, V domains shown)
VH: not shown
VL: B1 VL with N23G, I27L
notes: IgG4 backbone; copies: 2 + 2
B26: 16H7 variant, light chain G24L (antibody, human IgG4 S228P, lambda, V domains shown)
VH: not shown
VL: B1 VL with N23G, G24L
notes: IgG4 backbone
B27: 16H7 variant, light chain G24T (antibody, human IgG4 S228P, lambda, V domains shown)
VH: not shown
VL: B1 VL with N23G, G24T
notes: IgG4 backbone
B28: 16H7 variant, light chain G24I (antibody, human IgG4 S228P, lambda, V domains shown)
VH: not shown
VL: B1 VL with N23G, G24I
notes: IgG4 backbone
B29: 16H7 variant, light chain G24W (antibody, human IgG4 S228P, lambda, V domains shown)
VH: not shown
VL: B1 VL with N23G, G24W
notes: IgG4 backbone
B30: 16H7 variant, light chain N25C (antibody, human IgG4 S228P, lambda, V domains shown)
VH: not shown
VL: B1 VL with N23G, N25C
notes: IgG4 backbone
B31: 16H7 variant, light chain G23Y (antibody, human IgG4 S228P, lambda, V domains shown)
VH: not shown
VL: B1 VL with N23Y
notes: IgG4 backbone
B32: 16H7 variant, light chain N25G (antibody, human IgG4 S228P, lambda, V domains shown)
VH: not shown
VL: B1 VL with N23G, N25G
notes: IgG4 backbone
B33: 16H7 variant, light chain G24E (antibody, human IgG4 S228P, lambda, V domains shown)
VH: not shown
VL: B1 VL with N23G, G24E
notes: IgG4 backbone
Wherever Mean E max (%) is given: reference of the scale not given here.

Each binder was assayed against human FGFR1c/KLB cell surface receptor complex on iLite FGF21 reporter cells (human, UniProt P11362 22-822; Q86Z14 1-1044) (assay: cell-based or functional assay).
human FGFR1c/KLB cell surface receptor complex on iLite FGF21 reporter cells, sequence (P11362 22-822, chain 1 of 2): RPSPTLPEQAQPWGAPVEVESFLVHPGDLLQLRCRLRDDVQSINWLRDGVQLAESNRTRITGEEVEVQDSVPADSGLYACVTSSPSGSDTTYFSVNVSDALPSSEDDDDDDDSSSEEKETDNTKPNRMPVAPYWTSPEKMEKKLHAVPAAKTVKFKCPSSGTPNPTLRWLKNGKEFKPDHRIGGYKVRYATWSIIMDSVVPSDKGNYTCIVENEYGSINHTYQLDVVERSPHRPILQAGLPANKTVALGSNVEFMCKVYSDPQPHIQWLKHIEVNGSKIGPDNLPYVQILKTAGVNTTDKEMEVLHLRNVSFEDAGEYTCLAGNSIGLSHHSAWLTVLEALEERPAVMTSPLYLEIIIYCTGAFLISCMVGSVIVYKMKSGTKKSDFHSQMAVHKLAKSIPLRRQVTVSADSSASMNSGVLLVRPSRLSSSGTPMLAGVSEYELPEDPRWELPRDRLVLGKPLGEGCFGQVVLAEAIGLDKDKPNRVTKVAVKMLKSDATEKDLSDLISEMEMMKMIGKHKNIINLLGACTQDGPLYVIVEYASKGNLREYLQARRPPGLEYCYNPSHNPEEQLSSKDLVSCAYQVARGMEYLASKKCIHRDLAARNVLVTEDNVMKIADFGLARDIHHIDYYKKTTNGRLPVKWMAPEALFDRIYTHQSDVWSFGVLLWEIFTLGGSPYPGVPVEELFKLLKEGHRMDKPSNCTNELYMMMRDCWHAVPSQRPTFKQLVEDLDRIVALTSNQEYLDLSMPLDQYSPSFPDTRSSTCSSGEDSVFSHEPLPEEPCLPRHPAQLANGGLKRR
human FGFR1c/KLB cell surface receptor complex on iLite FGF21 reporter cells, sequence (Q86Z14 whole entry, chain 2 of 2): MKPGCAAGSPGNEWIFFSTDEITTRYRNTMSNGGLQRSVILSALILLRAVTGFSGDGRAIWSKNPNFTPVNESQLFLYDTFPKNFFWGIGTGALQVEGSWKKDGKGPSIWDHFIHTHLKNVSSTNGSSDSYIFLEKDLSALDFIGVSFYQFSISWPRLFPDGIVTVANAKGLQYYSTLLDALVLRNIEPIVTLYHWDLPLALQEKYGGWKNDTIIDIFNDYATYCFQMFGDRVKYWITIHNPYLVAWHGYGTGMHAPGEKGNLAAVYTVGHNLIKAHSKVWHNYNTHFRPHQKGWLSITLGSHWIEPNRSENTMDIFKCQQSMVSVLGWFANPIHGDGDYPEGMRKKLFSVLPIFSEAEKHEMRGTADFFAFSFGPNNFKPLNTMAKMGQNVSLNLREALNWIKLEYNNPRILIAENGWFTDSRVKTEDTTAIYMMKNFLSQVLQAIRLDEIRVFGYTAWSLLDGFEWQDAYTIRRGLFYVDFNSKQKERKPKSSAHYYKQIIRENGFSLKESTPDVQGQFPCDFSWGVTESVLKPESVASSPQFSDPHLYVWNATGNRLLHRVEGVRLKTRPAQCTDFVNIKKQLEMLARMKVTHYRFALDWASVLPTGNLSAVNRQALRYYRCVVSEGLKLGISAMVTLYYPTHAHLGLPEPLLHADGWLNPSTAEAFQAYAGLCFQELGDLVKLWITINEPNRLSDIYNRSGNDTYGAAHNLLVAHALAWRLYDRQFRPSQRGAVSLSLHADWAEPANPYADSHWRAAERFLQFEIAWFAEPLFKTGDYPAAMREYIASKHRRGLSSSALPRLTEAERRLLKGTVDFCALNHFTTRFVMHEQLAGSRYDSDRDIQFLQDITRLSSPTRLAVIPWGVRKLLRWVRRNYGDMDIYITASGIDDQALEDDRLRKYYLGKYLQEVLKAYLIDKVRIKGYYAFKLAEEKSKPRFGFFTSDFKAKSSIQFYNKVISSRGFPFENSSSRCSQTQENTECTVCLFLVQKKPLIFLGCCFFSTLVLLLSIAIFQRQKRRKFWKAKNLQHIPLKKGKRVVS
With B1 the “Mean E max (%)” value was 100% and the “Mean EC50” value was 0.138 nM.
With B2 the “Mean E max (%)” value was 96% and the “Mean EC50” value was 0.081 nM.
B3 was tested, and the “Mean E max (%)” value was 102% and the “Mean EC50” value was 0.125 nM.
B4 was tested, and the “Mean E max (%)” value was 103% and the “Mean EC50” value was 0.135 nM.
With B5 the “Mean E max (%)” value was 99% and the “Mean EC50” value was 0.125 nM.
With B6 the “Mean E max (%)” value was 107% and the “Mean EC50” value was 0.137 nM.
In the case of B7, the “Mean E max (%)” value is reported as 98% and the “Mean EC50” value is reported as 0.121 nM.
B8 was tested, and the “Mean E max (%)” value was 112% and the “Mean EC50” value was 0.105 nM.
With B9 the “Mean E max (%)” value was 107% and the “Mean EC50” value was 0.107 nM.
For B10, the “Mean E max (%)” value was 106% and the “Mean EC50” value was 0.107 nM.
With B11 the “Mean E max (%)” value was 101% and the “Mean EC50” value was 0.117 nM.
With B12 the “Mean E max (%)” value was 99% and the “Mean EC50” value was 0.127 nM.
In the case of B13, the “Mean E max (%)” value is reported as 107% and the “Mean EC50” value is reported as 0.151 nM.
With B14 the “Mean E max (%)” value was 103% and the “Mean EC50” value was 0.114 nM.
With B15 the “Mean E max (%)” value was 106% and the “Mean EC50” value was 0.141 nM.
For B16, the “Mean E max (%)” value was 93% and the “Mean EC50” value was 0.105 nM.
For B17, the “Mean E max (%)” value was 98% and the “Mean EC50” value was 0.106 nM.
B18 was tested, and the “Mean E max (%)” value was 95% and the “Mean EC50” value was 0.094 nM.
In the case of B19, the “Mean E max (%)” value is reported as 102% and the “Mean EC50” value is reported as 0.143 nM.
For B20, the “Mean E max (%)” value was 109% and the “Mean EC50” value was 0.115 nM.
In the case of B21, the “Mean E max (%)” value is reported as 111% and the “Mean EC50” value is reported as 0.123 nM.
For B22, the “Mean E max (%)” value was 121% and the “Mean EC50” value was 0.135 nM.
B23 was tested, and the “Mean E max (%)” value was 120% and the “Mean EC50” value was 0.143 nM.
For B24, the “Mean E max (%)” value was 104% and the “Mean EC50” value was 0.106 nM.
In the case of B25, the “Mean E max (%)” value is reported as 110% and the “Mean EC50” value is reported as 0.124 nM.
For B26, the “Mean E max (%)” value was 108% and the “Mean EC50” value was 0.161 nM.
With B27 the “Mean E max (%)” value was 106% and the “Mean EC50” value was 0.139 nM.
In the case of B28, the “Mean E max (%)” value is reported as 109% and the “Mean EC50” value is reported as 0.143 nM.
With B29 the “Mean E max (%)” value was 110% and the “Mean EC50” value was 0.145 nM.
With B30 the “Mean E max (%)” value was 110% and the “Mean EC50” value was 0.133 nM.
In the case of B31, the “Mean E max (%)” value is reported as 107% and the “Mean EC50” value is reported as 0.124 nM.
In the case of B32, the “Mean E max (%)” value is reported as 100% and the “Mean EC50” value is reported as 0.118 nM.
B33 was tested, and the “Mean E max (%)” value was 112% and the “Mean EC50” value was 0.118 nM.

These binders were tested against T1, human beta-Klotho (KLB) (assay: BLI off-rate screen (Octet), Ab captured via Fc;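 further: antibody supernatants applied at 25 µg/mL, dissociation monitored over 1800 s in D-PBS with 0.1% BSA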).
For B1, the koff was 2.7e-05 s⁻¹.
For B2, the koff was 1.6e-05 s⁻¹.
Work on B3 yielded a koff of 8.5e-05 s⁻¹.
In the case of B4, the koff is reported as 3.1e-05 s⁻¹.
B5 showed a koff of 2.7e-05 s⁻¹.
Binder B6 has a koff of 4.1e-05 s⁻¹.
B7 was tested, and the koff was 4.6e-05 s⁻¹.
B8 gave a koff of 1.5e-05 s⁻¹.
Work on B9 yielded a koff of 4.6e-05 s⁻¹.
B10 showed a koff of 3e-05 s⁻¹.
B11 was tested, and the koff was 3.8e-05 s⁻¹.
For B12, the koff was 5.3e-05 s⁻¹.
With B13 the koff was 2.3e-05 s⁻¹.
B14 was tested, and the koff was 1.7e-05 s⁻¹.
B15 gave a koff of 4.9e-05 s⁻¹.
B16 showed a koff of 3.9e-05 s⁻¹.
Binder B17 has a koff of 1.5e-06 s⁻¹.
B18 was tested, and the koff was 3.6e-05 s⁻¹.
With B19 the koff was 3.9e-05 s⁻¹.
For B20, the koff was 4.8e-05 s⁻¹.
B21 showed a koff of 3e-05 s⁻¹.
B22 gave a koff of 8.3e-06 s⁻¹.
B23 gave a koff of 1e-07 s⁻¹.
B24 showed a koff of 2.2e-05 s⁻¹.
For B25, the koff was 6.2e-05 s⁻¹.
Work on B26 yielded a koff of 3.4e-05 s⁻¹.
Binder B27 has a koff of 6.9e-05 s⁻¹.
B28 showed a koff of 2.7e-05 s⁻¹.
In the case of B29, the koff is reported as 3.7e-05 s⁻¹.
B30 showed a koff of 3.6e-06 s⁻¹.
B31 was tested, and the koff was 4.2e-05 s⁻¹.
With B32 the koff was 3.2e-05 s⁻¹.
B33 gave a koff of 2.7e-05 s⁻¹.
